{"source": "the supplement of paper PMC6379048", "experiment_in_all_cases": "EC50 of free RNA motif oligo competing protein binding to immobilised probe", "key": {"CELF1": {"target": "T1, CELF1 (UniProt Q92879)", "T1 sequence": "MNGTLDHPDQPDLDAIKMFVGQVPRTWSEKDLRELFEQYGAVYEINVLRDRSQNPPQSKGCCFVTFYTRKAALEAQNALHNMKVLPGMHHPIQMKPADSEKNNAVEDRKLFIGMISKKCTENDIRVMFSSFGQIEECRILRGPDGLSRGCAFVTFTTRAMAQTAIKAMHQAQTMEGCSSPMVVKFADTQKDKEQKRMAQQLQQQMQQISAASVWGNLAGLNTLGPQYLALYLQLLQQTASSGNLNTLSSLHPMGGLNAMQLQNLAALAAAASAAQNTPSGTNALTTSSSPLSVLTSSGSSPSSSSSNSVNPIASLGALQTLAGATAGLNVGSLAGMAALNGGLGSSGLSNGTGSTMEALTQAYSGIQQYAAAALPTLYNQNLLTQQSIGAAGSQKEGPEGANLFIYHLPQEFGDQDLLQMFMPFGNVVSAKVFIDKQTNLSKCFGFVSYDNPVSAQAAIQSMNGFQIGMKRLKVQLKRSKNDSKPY", "outline": "(§1)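 Free RNA oligos (0 nM to 30 μM) were pre-incubated with HEK293-FT lysate (2.5 mg protein/well) for 1 h at 4°C, followed by 30 min at 4°C with the same 5′-amino-C6 oligos coupled to NHS-Sepharose beads. Bound proteins were quantified by label-free LC-MS/MS and normalised to the control. EC50 was derived from a four-parameter log-logistic fit, and Kd was obtained by multiplying EC50 by a protein-dependent depletion factor.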"}, "CELF2": {"target": "T2, CELF2 (UniProt O95319)", "T2 sequence": "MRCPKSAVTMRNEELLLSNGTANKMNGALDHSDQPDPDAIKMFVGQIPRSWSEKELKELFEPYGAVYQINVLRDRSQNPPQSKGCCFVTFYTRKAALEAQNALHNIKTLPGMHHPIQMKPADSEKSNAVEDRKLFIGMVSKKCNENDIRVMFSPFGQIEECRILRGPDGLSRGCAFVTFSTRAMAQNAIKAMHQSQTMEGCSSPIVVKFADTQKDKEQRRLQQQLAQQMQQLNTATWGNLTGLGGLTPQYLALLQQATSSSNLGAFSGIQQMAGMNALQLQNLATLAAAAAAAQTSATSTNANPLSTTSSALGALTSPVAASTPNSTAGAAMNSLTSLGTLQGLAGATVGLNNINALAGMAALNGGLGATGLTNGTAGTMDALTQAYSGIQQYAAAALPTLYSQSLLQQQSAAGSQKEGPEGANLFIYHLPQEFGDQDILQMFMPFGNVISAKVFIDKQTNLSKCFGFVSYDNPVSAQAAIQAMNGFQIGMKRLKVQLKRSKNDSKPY", "outline": "as §1"}, "DHX15": {"target": "DHX15 (UniProt O43143)", "sequence (O43143 whole entry)": "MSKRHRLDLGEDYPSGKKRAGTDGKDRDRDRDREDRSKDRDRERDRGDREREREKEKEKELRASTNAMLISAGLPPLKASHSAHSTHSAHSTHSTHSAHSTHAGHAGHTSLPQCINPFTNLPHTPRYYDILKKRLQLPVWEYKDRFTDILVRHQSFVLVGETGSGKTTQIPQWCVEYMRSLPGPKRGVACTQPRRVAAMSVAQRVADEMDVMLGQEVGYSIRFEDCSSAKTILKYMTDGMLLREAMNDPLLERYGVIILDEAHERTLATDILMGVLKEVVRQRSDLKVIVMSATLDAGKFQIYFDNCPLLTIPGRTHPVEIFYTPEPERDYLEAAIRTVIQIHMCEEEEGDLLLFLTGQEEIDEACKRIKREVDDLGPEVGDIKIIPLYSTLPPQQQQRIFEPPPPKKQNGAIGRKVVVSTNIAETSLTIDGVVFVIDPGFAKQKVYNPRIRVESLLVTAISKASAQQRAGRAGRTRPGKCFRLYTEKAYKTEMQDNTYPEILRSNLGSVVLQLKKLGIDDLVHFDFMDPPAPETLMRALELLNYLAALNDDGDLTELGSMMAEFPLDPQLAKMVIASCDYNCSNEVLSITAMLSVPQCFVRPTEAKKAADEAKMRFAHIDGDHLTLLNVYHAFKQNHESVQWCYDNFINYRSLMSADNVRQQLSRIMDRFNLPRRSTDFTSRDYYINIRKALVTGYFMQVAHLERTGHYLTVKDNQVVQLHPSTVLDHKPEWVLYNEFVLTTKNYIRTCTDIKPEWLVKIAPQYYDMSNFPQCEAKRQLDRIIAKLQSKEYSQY", "outline": "as §1"}, "PHAX": {"target": "PHAX (UniProt Q9H814)", "sequence (Q9H814 whole entry)": "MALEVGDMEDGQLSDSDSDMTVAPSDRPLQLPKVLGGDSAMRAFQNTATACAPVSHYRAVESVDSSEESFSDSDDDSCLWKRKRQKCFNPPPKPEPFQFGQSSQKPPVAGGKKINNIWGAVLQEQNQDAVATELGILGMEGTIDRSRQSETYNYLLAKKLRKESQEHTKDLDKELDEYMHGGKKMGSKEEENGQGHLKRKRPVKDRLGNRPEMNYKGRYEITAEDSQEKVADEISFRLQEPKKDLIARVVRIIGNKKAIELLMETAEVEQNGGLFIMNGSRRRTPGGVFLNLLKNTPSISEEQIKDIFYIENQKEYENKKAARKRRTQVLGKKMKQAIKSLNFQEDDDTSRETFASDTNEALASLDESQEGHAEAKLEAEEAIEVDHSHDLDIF", "outline": "as §1"}, "RTCA": {"target": "T3, RTCA (UniProt O00442)", "T3 sequence": "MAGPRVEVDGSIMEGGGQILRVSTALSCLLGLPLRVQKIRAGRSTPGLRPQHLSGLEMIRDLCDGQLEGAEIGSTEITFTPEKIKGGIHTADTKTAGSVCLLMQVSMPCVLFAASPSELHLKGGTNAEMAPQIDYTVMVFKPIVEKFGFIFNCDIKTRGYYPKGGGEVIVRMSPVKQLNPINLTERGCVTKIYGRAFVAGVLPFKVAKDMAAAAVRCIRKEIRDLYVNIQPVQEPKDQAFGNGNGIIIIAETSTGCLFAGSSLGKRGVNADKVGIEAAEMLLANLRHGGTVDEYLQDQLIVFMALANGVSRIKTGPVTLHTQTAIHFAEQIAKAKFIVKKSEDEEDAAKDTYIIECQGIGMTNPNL", "outline": "as §1"}, "XRN2": {"target": "T4, XRN2 (UniProt Q9H0D6)", "T4 sequence": "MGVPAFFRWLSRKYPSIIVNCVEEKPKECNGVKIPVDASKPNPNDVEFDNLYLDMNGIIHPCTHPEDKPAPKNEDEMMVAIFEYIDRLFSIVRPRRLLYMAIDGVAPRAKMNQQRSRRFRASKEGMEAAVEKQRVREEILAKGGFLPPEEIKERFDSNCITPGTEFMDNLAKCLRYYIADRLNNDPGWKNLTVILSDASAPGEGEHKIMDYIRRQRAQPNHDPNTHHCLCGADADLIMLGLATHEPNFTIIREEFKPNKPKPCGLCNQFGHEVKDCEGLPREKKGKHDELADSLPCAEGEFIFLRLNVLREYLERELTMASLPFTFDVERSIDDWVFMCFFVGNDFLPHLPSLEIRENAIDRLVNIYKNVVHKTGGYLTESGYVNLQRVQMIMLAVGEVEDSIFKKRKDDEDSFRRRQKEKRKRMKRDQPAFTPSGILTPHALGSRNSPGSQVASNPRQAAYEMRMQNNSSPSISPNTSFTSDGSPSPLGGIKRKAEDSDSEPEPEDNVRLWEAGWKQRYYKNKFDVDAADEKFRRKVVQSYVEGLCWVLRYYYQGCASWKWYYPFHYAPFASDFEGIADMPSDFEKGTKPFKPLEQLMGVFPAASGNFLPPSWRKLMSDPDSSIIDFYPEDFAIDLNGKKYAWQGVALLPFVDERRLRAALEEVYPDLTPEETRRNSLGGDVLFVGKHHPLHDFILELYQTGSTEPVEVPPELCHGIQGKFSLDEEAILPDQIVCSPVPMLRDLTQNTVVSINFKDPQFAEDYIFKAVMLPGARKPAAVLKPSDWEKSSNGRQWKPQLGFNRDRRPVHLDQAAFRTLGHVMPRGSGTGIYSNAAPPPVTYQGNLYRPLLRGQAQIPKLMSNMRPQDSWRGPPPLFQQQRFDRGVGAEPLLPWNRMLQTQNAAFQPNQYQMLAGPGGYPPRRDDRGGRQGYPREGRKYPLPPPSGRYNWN", "outline": "as §1"}, "ZC3HAV1": {"target": "ZC3HAV1 (UniProt Q7Z2W4)", "sequence (Q7Z2W4 whole entry)": "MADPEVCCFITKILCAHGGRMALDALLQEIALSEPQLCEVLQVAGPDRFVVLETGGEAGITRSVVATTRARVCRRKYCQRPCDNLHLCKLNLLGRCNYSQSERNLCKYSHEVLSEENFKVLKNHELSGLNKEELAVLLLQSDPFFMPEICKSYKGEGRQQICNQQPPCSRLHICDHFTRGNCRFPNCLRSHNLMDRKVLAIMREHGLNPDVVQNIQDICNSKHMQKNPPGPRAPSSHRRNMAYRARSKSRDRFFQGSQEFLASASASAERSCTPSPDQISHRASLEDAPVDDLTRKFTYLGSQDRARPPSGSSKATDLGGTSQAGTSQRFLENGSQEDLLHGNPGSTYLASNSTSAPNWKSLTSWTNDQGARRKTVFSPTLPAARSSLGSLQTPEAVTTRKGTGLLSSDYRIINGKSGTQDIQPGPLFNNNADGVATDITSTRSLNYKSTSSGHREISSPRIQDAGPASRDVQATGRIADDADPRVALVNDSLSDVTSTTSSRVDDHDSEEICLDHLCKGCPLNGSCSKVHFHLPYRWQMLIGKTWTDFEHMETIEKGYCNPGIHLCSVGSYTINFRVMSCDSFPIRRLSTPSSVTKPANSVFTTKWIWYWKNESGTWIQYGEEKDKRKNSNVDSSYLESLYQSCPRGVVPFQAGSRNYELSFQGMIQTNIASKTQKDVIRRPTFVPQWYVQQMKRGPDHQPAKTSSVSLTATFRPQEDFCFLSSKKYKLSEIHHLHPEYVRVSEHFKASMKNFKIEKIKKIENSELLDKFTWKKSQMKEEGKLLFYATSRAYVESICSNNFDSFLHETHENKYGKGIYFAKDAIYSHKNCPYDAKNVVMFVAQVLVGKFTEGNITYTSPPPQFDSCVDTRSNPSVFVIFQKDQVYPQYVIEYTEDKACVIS", "outline": "as §1"}}}
{"sequence": "AAUAAA", "values": [{"measurement": "EC50", "setting": "CELF1", "result": 0.667, "unit": "µM"}, {"measurement": "EC50", "setting": "CELF2", "result": 1.25, "unit": "µM"}, {"measurement": "EC50", "setting": "DHX15", "result": 2.15, "unit": "µM"}, {"measurement": "EC50", "setting": "PHAX", "result": 10.7, "unit": "µM"}, {"measurement": "EC50", "setting": "RTCA", "result": 0.566, "unit": "µM"}, {"measurement": "EC50", "setting": "XRN2", "result": 0.843, "unit": "µM"}, {"measurement": "EC50", "setting": "ZC3HAV1", "result": 3.9, "unit": "µM"}]}
{"sequence": "CUGUCCU", "values": [{"measurement": "EC50", "setting": "CELF1", "result": 6.72, "unit": "µM"}, {"measurement": "EC50", "setting": "CELF2", "result": 2.67, "unit": "µM"}, {"measurement": "EC50", "setting": "DHX15", "result": 0.757, "unit": "µM"}, {"measurement": "EC50", "setting": "PHAX", "result": 1.35, "unit": "µM"}, {"measurement": "EC50", "setting": "RTCA", "result": 1.94, "unit": "µM"}, {"measurement": "EC50", "setting": "XRN2", "result": 0.147, "unit": "µM"}, {"measurement": "EC50", "setting": "ZC3HAV1", "result": 1.32, "unit": "µM"}]}
{"sequence": "UAUUUAU", "values": [{"measurement": "EC50", "setting": "CELF1", "result": 0.555, "unit": "µM"}, {"measurement": "EC50", "setting": "CELF2", "result": 0.517, "unit": "µM"}, {"measurement": "EC50", "setting": "DHX15", "result": 0.576, "unit": "µM"}, {"measurement": "EC50", "setting": "PHAX", "result": 9.1, "unit": "µM"}, {"measurement": "EC50", "setting": "RTCA", "result": 0.381, "unit": "µM"}, {"measurement": "EC50", "setting": "XRN2", "result": 0.409, "unit": "µM"}, {"measurement": "EC50", "setting": "ZC3HAV1", "result": 5.38, "unit": "µM"}]}
